Consider four molecules from patent publication US6596319B2, “Immunomodulating compositions for treatment of immune system disorders” (Lorus Therapeutics Inc., priority 2001, dated 2003).

Like-named read-outs stand apart in the source and are kept apart here.

The subject of data set [1] is Chang hepatoma cells. Briefly: Monocyte/Macrophage Cytotoxicity Assay to cell line (51Cr release). Conditions: peripheral blood monocytes from cancer patients; activator + Indomethacin (up to 5 ng/ml).
Data set [2] has as its system peritoneal macrophages. Briefly: In vitro stimulation of protease peptone peritoneal macrophages: NO (Greiss reagent). It counts as cell-based, C57BL/6 mice. Conditions: stimulant alone. The procedure:
(§1) Peritoneal macrophages were harvested from C57BL/6 mice 72 hours after intraperitoneal injection of 1.5 ml of 4% protease peptone. The macrophages were then stimulated in vitro with medium alone, 50 ng LPS, or VIRULIZIN™. Measurements of the stimulation was done with respect to TNF (by ELISA) and NO (by spectrophotometric assay using the Greiss reagent) levels in duplicate experiments. Standard error of the mean between duplicate experiments was less than 10%. […] Nitric oxide production was zero.
In vitro synergy of Virulizin™ with LPS for nitric oxide (NO) was addressed in the same procedure as above, except NO was determined in the supernatant of the treated macrophages. As above, the assay for NO is spectrophotometric and uses a Greiss reagent. As noted in the table above, LPS causes some release of NO (9 μm). VIRULIZIN™ in synergy with LPS induces a marked increase in NO production (13-27 μm) to dilutions of 1:40.
In vitro synergy of Virulizin™ with IFN-γ for NO release was studied, using the same peritoneal mouse macrophages derived from C57BL/6 mice treated as above. The data are included in the table above concerning “Synergistic Combinations.” As shown, LPS and IFN-γ alone each enhanced NO production (9 and 7 μm, respectively). VIRULIZIN™ added to IFN-γ induced a marked increase in NO production (47-57 μm) that almost equaled the combination of LPS and IFN-γ (74 μM). […]

Data set [3] relates to peritoneal macrophages. Kind of data set: NO release from macrophages harvested from treated mice. It counts as in vivo, C57BL/6 mice. As to conditions: mice injected with nothing; in vitro stimulant IFN-γ. On the procedure: (§2) In vivo production of TNF-α over 72 hours was studied on macrophages harvested from C57BL/6 mice that, prior to harvest, were treated with nothing, injected intraperitoneally 72 hours previously with 1.5 and 4% protease peptone, or injected intraperitoneally 72, 48, or 24 hours previously with 1.0 ml Virulizin™ diluted 1:10 in PBS. The macrophage monolayers were treated in vitro for 24 hours with IFN-γ (50 μ/ml), LPS only (5 ng/ml), or the combination thereof. TNF and NO were determined as recited above.
In vivo production of NO over 72 hrs was studied with macrophage cells and tests under the same conditions described above with respect to TNF-α production. There was a small spontaneous release of NO measured at 24 and 48 hrs after intraperitoneal injection of VIRULIZIN™ (hereinafter IP Virulizin™). […] The harvested macrophages that had received IP VIRULIZIN™ 72 hrs before responded no differently than macrophages that had no VIRULIZIN™ pretreatment. […] The maximum response was with macrophages pretreated with VIRULIZIN™ 48 hrs before harvesting and testing.

In data set [4] the test system is peritoneal macrophages. Briefly: TNF release from macrophages harvested from treated mice. As to conditions: mice injected with nothing; in vitro stimulant IFN-γ, 24 hours. It counts as in vivo, C57BL/6 mice. The procedure: as §2
As described, the release of TNF-α from macrophages was examined in the absence of a stimulus or with IFN-γ, LPS, or LPS/IFN-γ after 24 hrs in vitro culture. […] Likewise, there was a synergistic effect of LPS and IFN-γ on harvested macrophages that were stimulated 24 and 48 hrs but not 72 hrs before testing.

Data set [5] relates to peritoneal macrophages. Briefly: In vitro stimulation of protease peptone peritoneal macrophages: TNF (ELISA). Conditions: stimulant alone; 24 hours of in vitro culture. It counts as cell-based, C57BL/6 mice. The procedure: as §1
In vitro synergy of Virulizin™ with LPS for TNF-α release was also addressed. Peritoneal macrophages were harvested from C57BL/6 mice after the same aforementioned treatment. The macrophages were then stimulated with 50 ng LPS alone or LPS with different dilutions of VIRULIZIN™. As above, TNF was determined via ELISA. As noted in Table XIX, LPS alone induces about 2900 pg/ml of TNF-α release from mouse peritoneal macrophages in vitro compared to 262 pg/ml for medium. When LPS is combined with VIRULIZIN™, there is about an 800 pg/ml increase in TNF-alpha release at dilutions of VIRULIZIN™ 1:5 and 1:10 and enhanced release to at least 1:40.
In vitro synergy of Virulizin™ with IFN-γ for TNF-α release was studied, using the same peritoneal mouse macrophages derived from C57BL/6 mice treated as above. […] The same macrophages stimulated with either LPS or IFN-γ release almost 3000 pg/ml of TNF-α. […]

Data set [6] has as its system autologous tumor cells.
Method: The method requires isolation of monocytes/macrophages phages, which is accomplished as follows: Venous blood is collected aseptically in heparinized Vacutainer tubes. Sterile preservative-free heparin is added to a final concentration of 20 units/ml. The blood is diluted 3:1 in Hanks balanced salt solution (HBSS), layered onto lymphocyte separation medium and centrifuged to obtain a band of peripheral blood mononuclear cells (PBMNs). After centrifugation, the mononuclear cell layer is recovered from the interface, washed twice in medium (medium is Roswell Park Memorial Institute [RPMI] 1640 media supplemented with 10% heat-inactivated fetal bovine serum, 50 units/ml penicillin, and 50 μg/ml streptomycin) and monocytes are enumerated by latex ingestion. Monocytes are isolated by adherence in 96-well plastic plates (for 2 hours at 37° C., followed by two cycles of washing with medium). Adherent cells are estimated to be greater than 90% monocytes. […] The tumor cells are maintained in medium in which endotoxin concentration is guaranteed by the manufacturer to be low and is non-stimulatory in the assay.
For studies using autologous tumor cells, these cells are obtained from surgical biopsies, labelled with ^51C, and used in the same way as the hepatoma cells described above. […]
The test system of data set [7] is Chang hepatoma cells.
Method: This procedure has been named the “Monocyte/Macrophage Cytotoxicity Assay to Cell Lines and Autologous Tumor Cells,” or “Cytotoxicity Assay” for short.
The method requires isolation of monocytes/macrophages phages, which is accomplished as follows: Venous blood is collected aseptically in heparinized Vacutainer tubes. Sterile preservative-free heparin is added to a final concentration of 20 units/ml. The blood is diluted 3:1 in Hanks balanced salt solution (HBSS), layered onto lymphocyte separation medium and centrifuged to obtain a band of peripheral blood mononuclear cells (PBMNs). After centrifugation, the mononuclear cell layer is recovered from the interface, washed twice in medium (medium is Roswell Park Memorial Institute [RPMI] 1640 media supplemented with 10% heat-inactivated fetal bovine serum, 50 units/ml penicillin, and 50 μg/ml streptomycin) and monocytes are enumerated by latex ingestion. Monocytes are isolated by adherence in 96-well plastic plates (for 2 hours at 37° C., followed by two cycles of washing with medium). […]
For studies using a standard cell line, ^51Cr (chromium) labelled Chang hepatoma cells are used because this cell line is insensitive to natural killer cell cytotoxicity. […] After 24 hours, supernatants are collected and ^51Cr release is quantitated. The percent specific cytotoxicity is calculated as: [formula] […]

Turning to “GM-CSF: granulocyte macrophage colony stimulating factor”, in data set [1], the “% Cytotoxicity” value is reported as 17.8 ± 8%.
For IFN-γ: gamma interferon, the NO production in data set [2] stood at 7 μm. The NO in data set [3] stood at 25.8 ± 1.6 µM. Further, the TNF in data set [4] came out at 402 pg/mL. Besides, the TNF-α release in data set [5] was about 3000 pg/mL.
In the case of Interleukin-12: interleukin-12, the “% Tumor Cytotoxicity (E/T = 15/1)” value in data set [6] is on record as 11%.

B1: Monocyte-CSF: monocyte colony stimulating factor (protein, UniProt P09603 33-554, looked up)
Macrophage colony-stimulating …: EEVSEYCSHMIGSGHLQSLQRLIDSQMETSCQITFEFVDQEQLKDPVCYLKKAFLLVQDIMEDTMRFRDNTPNAIAIVQLQELSLRLKSCFTKDYEEHDKACVRTFYETPLQLLEKVKNVFNETKNLLDKDWNIFSKNCNNSFAECSSQDVVTKPDCNCLYPKAIPSSDPASVSPHQPLAPSMAPVAGLTWEDSEGTEGSSLLPGEQPLHTVDPGSAKQRPPRSTCQSFEPPETPVVKDSTIGGSPQPRPSVGAFNPGMEDILDSAMGTNWVPEEASGEASEIPVPQGTELSPSRPGGGSMQTEPARPSNFLSASSPLPASAKGQQPADVTGTALPRVGPVRPTGQDWNHTPQKTDHPSALLRDPPEPGSPRISSLRPQGLSNPSTLSAQPQLSRSHSSGSVLPLGELEGRRSTRDRRSPAEPEGGPASEGAARPLPRFNSVPLTDTGHERQSEGSFSPQLQESVFHLLVPSVILVLLAVGGLLFYRWRRRSHQEPQRADSPLEQPEGSPLTQDDRQVELPV
As to B1, the “% Cytotoxicity” value in data set [7] was determined as 14.31 ± 3%. Besides, the “% Tumor Cytotoxicity (E/T = 15/1)” value in data set [6] is 3%.
